Assay [1] addresses T1, human IL-1R3 on the cell surface (HaCAT cells, PBMC/NK cells, MRC-5 cells) (human, UniProt Q9NPH3 21-570).
T1 sequence (looked up): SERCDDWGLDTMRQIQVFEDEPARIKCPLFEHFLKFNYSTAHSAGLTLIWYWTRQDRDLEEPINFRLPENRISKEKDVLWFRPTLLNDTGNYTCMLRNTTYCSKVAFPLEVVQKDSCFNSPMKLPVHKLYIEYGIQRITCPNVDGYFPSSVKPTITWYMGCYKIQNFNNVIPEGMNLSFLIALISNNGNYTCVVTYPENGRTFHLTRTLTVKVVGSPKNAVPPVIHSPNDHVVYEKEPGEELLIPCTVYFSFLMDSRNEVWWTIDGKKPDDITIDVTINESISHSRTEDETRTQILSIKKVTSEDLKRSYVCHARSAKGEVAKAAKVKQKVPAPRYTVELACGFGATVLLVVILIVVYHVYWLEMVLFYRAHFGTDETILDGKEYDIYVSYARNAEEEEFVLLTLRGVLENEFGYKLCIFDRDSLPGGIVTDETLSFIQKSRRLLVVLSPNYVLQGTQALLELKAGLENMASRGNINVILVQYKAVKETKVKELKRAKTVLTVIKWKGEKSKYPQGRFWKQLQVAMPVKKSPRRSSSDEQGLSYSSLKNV
Put plainly: cell-based or functional assay.

Assay [2] deals with T2, hIL-1R3-His (extracellular domain of human IL-1R3 with C-terminal His tag) (human (homo sapiens), UniProt Q9NPH3 21-359).
T2 sequence: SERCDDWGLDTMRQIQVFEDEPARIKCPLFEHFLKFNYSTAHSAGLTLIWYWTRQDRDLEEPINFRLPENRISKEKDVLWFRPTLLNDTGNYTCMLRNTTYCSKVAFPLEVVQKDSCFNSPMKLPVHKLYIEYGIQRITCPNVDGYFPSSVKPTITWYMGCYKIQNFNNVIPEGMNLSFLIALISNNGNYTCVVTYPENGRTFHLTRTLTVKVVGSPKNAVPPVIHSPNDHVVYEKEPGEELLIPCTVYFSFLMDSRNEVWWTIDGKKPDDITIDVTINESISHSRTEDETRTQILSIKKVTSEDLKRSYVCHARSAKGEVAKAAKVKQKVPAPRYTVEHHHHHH
Put plainly: SPR (Biacore T200), antibody captured by anti-human Fc, hIL-1R3-His as analyte, 1:1 model. A general note: SPR reads the build-up and loss of mass on a sensor chip optically.

Assay [3] concerns the target T2, hIL-1R3-His (extracellular domain of …). The assay is described as above. This is another data set of the same source.
Assay [4] has the same target. The assay is described as above. The source holds these as a separate data set.
Assay [5] deals with T3, human IL-36R on the cell surface (HEK-Blue IL-36 cells, HaCAT cells, human CD14+ monocytes) (human, UniProt Q9HB29 20-575).
T3 sequence (looked up): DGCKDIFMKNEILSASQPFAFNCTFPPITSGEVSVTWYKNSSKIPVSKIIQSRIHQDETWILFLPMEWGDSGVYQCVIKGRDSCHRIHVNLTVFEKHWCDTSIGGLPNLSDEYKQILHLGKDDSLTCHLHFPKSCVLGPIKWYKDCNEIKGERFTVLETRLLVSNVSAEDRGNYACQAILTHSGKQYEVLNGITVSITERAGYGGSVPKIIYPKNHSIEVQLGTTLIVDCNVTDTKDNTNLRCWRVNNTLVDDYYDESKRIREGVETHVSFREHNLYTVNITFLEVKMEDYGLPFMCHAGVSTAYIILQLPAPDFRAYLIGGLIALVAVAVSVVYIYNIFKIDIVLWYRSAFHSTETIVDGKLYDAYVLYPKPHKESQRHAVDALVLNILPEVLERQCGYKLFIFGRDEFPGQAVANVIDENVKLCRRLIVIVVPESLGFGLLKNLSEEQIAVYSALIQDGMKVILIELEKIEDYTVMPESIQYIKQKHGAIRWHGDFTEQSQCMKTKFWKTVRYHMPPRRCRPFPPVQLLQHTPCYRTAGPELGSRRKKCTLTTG
The assay can be described thus: cell-based or functional assay.

In assay [6] the target is T3, human IL-36R on the cell surface …. The assay can be described thus: cell-based or functional assay. The source holds these as a separate data set.
The target of assay [7] is T4, hIL-36R-His (extracellular domain of human IL-36R with C-terminal His tag) (human (homo sapiens), UniProt Q9HB29 20-335).
T4 construct: also called human hIL-36R-His
T4 sequence: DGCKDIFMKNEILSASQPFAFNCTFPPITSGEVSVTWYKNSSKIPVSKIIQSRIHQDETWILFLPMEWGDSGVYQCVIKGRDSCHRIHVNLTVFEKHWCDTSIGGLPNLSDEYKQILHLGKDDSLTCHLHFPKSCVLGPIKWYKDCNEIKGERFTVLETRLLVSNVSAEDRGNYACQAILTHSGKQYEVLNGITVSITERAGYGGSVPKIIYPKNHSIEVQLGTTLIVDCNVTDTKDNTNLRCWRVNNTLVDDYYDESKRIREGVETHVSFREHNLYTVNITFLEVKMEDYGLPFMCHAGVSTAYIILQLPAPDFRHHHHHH
The assay can be described thus: SPR (Biacore T200), antibody captured by anti-human Fc, hIL-36R-His as analyte, 1:1 model.

Assay [8] has as its target T3, human IL-36R on the cell surface …. Put plainly: cell-based or functional assay. This is another data set of the same source.
Assay [9] concerns the target T4, hIL-36R-His (extracellular domain of …). The assay can be described thus: SPR (Biacore T200), antibody captured by anti-human Fc, hIL-36R-His as analyte, 1:1 model. This is another data set of the same source.

Where a chain is given by its changes, count along the chain named. Like-named read-outs stand apart in the source and are kept apart here.

B1: R1B9VH-h1+R1B9VK-h1 (antibody, V domains shown)
VH: EVQLVESGGGLVQPGGSLRLSCAASGFTFSSYAMSWVRQAPGKGLVWVAEISRGGSHTYYPDTVTGRFTISRDNAKNTLYLQMNSLRAEDTAVYYCARSYGNYPFDYWGQGTTVTVSS
VL: EIVLTQSPATLSLSPGERATLSCSASSSVSYMYWYQQKPGQAPRLLIYDTSNLASGIPARFSGSGSGTDFTLTISSLEPEDFAVYYCQQWSSYPLTFGQGTKLEIK
notes: also called humanized IL-1R3 antibody; R1B9VH-hl+R1B9VK-h1
Take B1: in assay [1], the “IC50 for inhibiting IL-36α from inducing hIL-8 secretion by HaCAT cells” value (shortened to “IC50 for inhibiting IL-36α”) is 0.195 nM, the “IC50 for inhibiting IL-36β from inducing hIL-8 secretion by HaCAT cells” value (from here on “IC50 for inhibiting IL-36β”) is 0.0961 nM and the “IC50 for inhibiting IL-36γ from inducing hIL-8 secretion by HaCAT cells” value (“IC50 for inhibiting IL-36γ” for short) worked out at 0.608 nM. In [2], this molecule showed a Kd of 1.12 nM, a koff of 0.000111 s⁻¹ and a kon of 99200 M⁻¹ s⁻¹. For the same molecule, in assay [3], the dissociation constant (Kd) turned out to be 1.45 nM, the koff came to 0.000153 s⁻¹ and the kon turned out to be 106000 M⁻¹ s⁻¹. In addition, in assay [4], the affinity, expressed as Kd, was 1.45 nM; the koff stood at 0.000153 s⁻¹; the kon is 106000 M⁻¹ s⁻¹.

B2: Crossmab bispecific antibody (R1B9VH-h1+R1B9VK-h1-Fab-cross+R49E11VH-h3+L26B11VK-Fab) (bispecific antibody, human IgG1, kappa)
heavy 1: QVQLVQSGAEVKKPGASVKVSCKASGYSFTSSWIHWVRQAPGQGLEWMGEINPGSGRSNYNENFQGRVTMTVDTSISTAYMELSRLRSDDTAVYYCTVVFYGEPYFPFWGQGTLVTVSSASTKGPSVFPLAPSSKSTSEGTAALGCLVKDYFPEPVTVSWNSGALTSGVHTFPAVLQSSGLYSLSSVVTVPSSSLGTQTYICNVDHKPSNTKVDKTVEPKSCDKTHTCPPCPAPEFEGGPSVFLFPPKPKDTLMISRTPEVTCVVVDVSQEDPEVQFNWYVDGVEVHNAKTKPREEQYNSTYRVVSVLTVLHQDWLNGKEYKCKVSNKALPASIEKTISKAKGQPREPQVCTLPPSQEEMTKNQVSLSCAVKGFYPSDIAVEWESNGQPENNYKTTPPVLDSDGSFFLVSKLTVDKSRWQEGNVFSCSVMHEALHNHYTQKSLSLSPGK
light 1: EIVLTQSPGTLSLSPGERATLSCRASQSVIYSYLAWYQQKPGQAPRLLIYSASKRASGIPDRFSGSGSGTDFTLTISRLEPEDFAVYYCQQHAGIPVTFGQGTKVEIKRTVAAPSVFIFPPSDEQLKSGTASVVCLLNNFYPREAKVQWKVDNALQSGNSQESVTEQDSKDSTYSLSSTLTLSKADYEKHKVYACEVTHQGLSSPVTKSFNRGEC
heavy 2: EVQLVESGGGLVQPGGSLRLSCAASGFTFSSYAMSWVRQAPGKGLVWVAEISRGGSHTYYPDTVTGRFTISRDNAKNTLYLQMNSLRAEDTAVYYCARSYGNYPFDYWGQGTTVTVSSASVAAPSVFIFPPSDEQLKSGTASVVCLLNNFYPREAKVQWKVDNALQSGNSQESVTEQDSKDSTYSLSSTLTLSKADYEKHKVYACEVTHQGLSSPVTKSFNRGECDKTHTCPPCPAPEFEGGPSVFLFPPKPKDTLMISRTPEVTCVVVDVSHEDPEVKFNWYVDGVEVHNAKTKPREEQYNSTYRVVSVLTVLHQDWLNGKEYKCKVSNKALPASIEKTISKAKGQPREPQVYTLPPCREEMTKNQVSLWCLVKGFYPSDIAVEWESNGQPENNYKTTPPVLDSDGSFFLYSKLTVDKSRWQQGNVFSCSVMHEALHNHYTQKSLSLSPGK
light 2: EIVLTQSPATLSLSPGERATLSCSASSSVSYMYWYQQKPGQAPRLLIYDTSNLASGIPARFSGSGSGTDFTLTISSLEPEDFAVYYCQQWSSYPLTFGQGTKLEIKSSASTKGPSVFPLAPSSKSTSGGTAALGCLVKDYFPEPVTVSWNSGALTSGVHTFPAVLQSSGLYSLSSVVTVPSSSLGTQTYICNVNHKPSNTKVDKRVEPKSC
notes: also called IL-36R×IL-1R3 Crossmab bispecific antibody
For the molecule B2, in [5], the “fold increase of activity by IC50 against R49E11VH-h3+L26B11VK, IL-36α, HaCAT hIL-8 secretion” value is around 3 fold; the “fold increase of activity by IC50 against R49E11VH-h3+L26B11VK, IL-36β, HaCAT hIL-8 secretion” value is around 13 fold; the “fold increase of activity by IC50 against R49E11VH-h3+L26B11VK, IL-36γ, HaCAT hIL-8 secretion” value is around 103 fold. Further, in [6], the “IC50 for inhibiting IL-36α” value was 0.0183 nM, the “IC50 for inhibiting IL-36β” value amounted to 0.0211 nM and the “IC50 for inhibiting IL-36γ” value stood at 0.0184 nM. In [3], the Kd is 0.761 nM, the koff turned out to be 0.000155 s⁻¹ and the on-rate constant (kon) stood at 203000 M⁻¹ s⁻¹. In addition, in assay [7], binding was characterised by a dissociation constant (Kd) of 0.669 nM, the koff was 4.37e-05 s⁻¹ and the kon is 65400 M⁻¹ s⁻¹.

B3: R72B7VH+L36E9VK (antibody, V domains shown)
VH: QVQLVQSGAEVKKPGASVKVSCKASGYSFTSSWIHWVKQAPGQGLEWMGEINPGNVRSNYNENFRNKVTMTVDTSISTAYMELSRLRSDDTAVYYCTVINYGEPYFASWGQGTLVTVSS
VL: EIVLTQSPGTLSLSPGERATLSCRASQSVIGSYLAWYQQKPGQAPRLLIYSASKLASGIPDRFSGSGSGTDFTLTISRLEPEDFAVYYCQQDTRYPITFGQGTKVEIK
notes: also called R72B7VH+L36E9VK monoclonal antibody
Turning to B3, in assay [8], the “IC50 for inhibiting IL-36α” value was found to be 0.508 nM, the “IC50 for inhibiting IL-36β” value was determined as 0.511 nM and the “IC50 for inhibiting IL-36γ” value came to 3.65 nM. In addition, in assay [9], binding was characterised by a dissociation constant (Kd) of 1.65 nM, the dissociation rate constant (koff) stood at 5.4e-05 s⁻¹ and the association rate constant (kon) was 32800 M⁻¹ s⁻¹.

B4: R49E11VH-h3+L36E9VK (antibody, V domains shown)
VH: B3 VH with K38R, N55S, V56G, R65Q, N66G, K67R, I99V, N100F, A107P, S108F
VL: B3 VL
In assay [9], B4 gave a Kd of 11.4 nM, an off-rate constant (koff) of 9.94e-05 s⁻¹ and an association rate constant (kon) of 8690 M⁻¹ s⁻¹.

As usually defined, the Kd is a measure of binding affinity in units of concentration. Read a low Kd as tighter binding. A word on the koff: it is the first-order rate constant of dissociation. For orientation: kon means a measure of how fast the partners come together. Higher therefore signals fast association.

These data come from EP4660205A1 (Beijing Wisdomab Biotechnology Co., Ltd, dated 2025).
